What was measured:
[1] = biological target: T1, NPP1 (Oryza sativa, UniProt Q0X0G2); assay: hydrolysis kinetics, […] substrate; assay type: biochemical; details: 37°C, optimal pH
T1 construct: recombinant, purified from transgenic rice cells (UNP1) overexpressing NPP1 cDNA; 70 kDa SDS-PAGE, 251 kDa gel filtration; gene on chromosome 8
T1 sequence (Q0X0G2 26-623): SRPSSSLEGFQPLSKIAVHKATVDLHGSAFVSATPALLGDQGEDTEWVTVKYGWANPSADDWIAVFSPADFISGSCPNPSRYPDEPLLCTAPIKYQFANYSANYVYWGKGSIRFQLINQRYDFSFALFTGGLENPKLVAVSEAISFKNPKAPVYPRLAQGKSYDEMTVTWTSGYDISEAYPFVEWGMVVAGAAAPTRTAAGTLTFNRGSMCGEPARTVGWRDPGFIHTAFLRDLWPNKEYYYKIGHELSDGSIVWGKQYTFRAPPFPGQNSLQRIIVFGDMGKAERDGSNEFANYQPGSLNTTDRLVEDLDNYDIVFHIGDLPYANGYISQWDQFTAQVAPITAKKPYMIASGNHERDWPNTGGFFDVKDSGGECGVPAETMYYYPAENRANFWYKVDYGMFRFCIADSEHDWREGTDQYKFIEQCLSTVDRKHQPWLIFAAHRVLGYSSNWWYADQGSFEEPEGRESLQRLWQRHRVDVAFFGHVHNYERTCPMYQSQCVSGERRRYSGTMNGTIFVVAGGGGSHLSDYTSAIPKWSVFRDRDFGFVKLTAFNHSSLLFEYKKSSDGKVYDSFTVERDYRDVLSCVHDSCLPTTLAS

[2] = substrate: NC(=O)c1ccc[n+]([C@@H]2O[C@H](COP(=O)(O)OP(=O)(O)OC[C@H]3O[C@@H](n4cnc5c(N)ncnc54)[C@H](O)[C@@H]3O)[C@@H](O)[C@H]2O)c1; assay: purified protein; assay type: biochemical, Oryza sativa; details: 37°C, optimal pH
[3] = substrate: Nc1ncnc2c1ncn2[C@@H]1O[C@H](COP(=O)(O)OP(=O)(O)O[C@H]2O[C@H](CO)[C@@H](O)[C@H](O)[C@H]2O)[C@@H](O)[C@H]1O; assay: purified protein; assay type: biochemical, Oryza sativa; details: 37°C
[4] = substrate: NC(=O)c1ccc[n+]([C@@H]2O[C@H](COP(=O)([O-])OP(=O)(O)OC[C@H]3O[C@@H](n4cnc5c(N)ncnc54)[C@H](OP(=O)(O)O)[C@@H]3O)[C@@H](O)[C@H]2O)c1; assay: purified protein, by the assay type; design: steady-state hydrolysis kinetics of purified recombinant rice NPPs, substrate 0.1-10 mM, 37 °C, optimal pH
Source text: (§1) To carry out substrate specificity and kinetic studies of NPP1, NPP2 and NPP6, in this work we produced transgenic rice cells ectopically expressing NPP1, NPP2 and NPP6 and purified the corresponding recombinant proteins as described in the Materials and Methods. Details of the processes for purification of recombinant proteins and quality of the final preparations are shown in Supplementary Table S2 and Supplementary Fig. S1A. […] Purification procedures of NPP1, NPP2 and NPP6 expressed in the transgenic rice cells (UNP1, UNP2 and UNP6, respectively) were essentially identical to those used in the earlier study ([Nanjo et al. 2006]). They are summarized in Supplementary Table S2. Rice callus cells (200 g) derived from the seed embryos of UNP1, UNP2 and UNP6 lines were homogenized in 5 vols. of 10 mM Tris–HCl (pH 8.8) and filtered through four layers of gauze. The homogenates were centrifuged at 20,000 × g for 10 min. The supernatants were then adjusted to acidic pH 5.4 with acetate buffer and centrifuged at 20,000 × g. After re-adjustment to pH 7.4 with 1.5 M Tris–HCl (pH 8.8) and further centrifugation at 20,000 × g, the resulting supernatants were applied to a Con A–Sepharose 4B column (ø 1.0 × 8 cm, Pharmacia) equilibrated with 40 mM Tris–HCl (pH 7.4), 0.5 M NaCl, 1 mM MnCl2 and 1 mM CaCl2, and eluted with 25 ml of 0.5 M α-methyl-D-mannopyranoside in 10 mM Tris–HCl (pH 7.4). The eluents were applied to a Q Sepharose HP column (ø 1.0 × 3 cm, Pharmacia) equilibrated with 10 mM Tris–HCl (pH 7.4) and eluted with 50 ml of a linear gradient of 0–0.5 M NaCl in 10 mM Tris–HCl (pH 7.4). Finally, the enzyme preparation was desalted by ultrafiltration on a Microcon YM-100 (Amicon).

[5] = substrate: O=c1ccn([C@@H]2O[C@H](COP(=O)(O)OP(=O)(O)O)[C@@H](O)[C@H]2O)c(=O)[nH]1; assay: purified protein; details: 37°C, optimal pH
[6] = substrate: Nc1ncnc2c1ncn2[C@@H]1O[C@H](COP(=O)(O)OP(=O)(O)O)[C@@H](O)[C@H]1O; assay: purified protein; assay type: biochemical, Oryza sativa; details: 37°C, no metal required
[7] = substrate: O=P(O)(O)OP(=O)(O)O; assay: purified protein; assay type: biochemical, Oryza sativa; details: 37°C, optimal pH
[8] = substrate: O=[N+]([O-])c1ccc(OP(=O)(O)Oc2ccc([N+](=O)[O-])cc2)cc1; assay: purified protein; assay type: biochemical, Oryza sativa; details: 37°C, optimal pH
[9] = substrate: O=c1ccn([C@@H]2O[C@H](CO[P@@](=O)(O)O[P@@](=O)(O)O[C@H]3O[C@H](CO)[C@@H](O)[C@H](O)[C@H]3O)[C@@H](O)[C@H]2O)c(=O)[nH]1; assay: purified protein, by the assay type; design: steady-state hydrolysis kinetics of purified recombinant rice NPPs, substrate 0.1-10 mM, 37 °C, optimal pH
Source text: as §1

[10] = substrate: Nc1ccn([C@@H]2O[C@H](COP(=O)(O)OP(=O)(O)O)[C@@H](O)[C@H]2O)c(=O)n1; assay: purified protein; assay type: biochemical, Oryza sativa; details: 37°C, optimal pH
[11] = substrate: Nc1nc2c(ncn2[C@@H]2O[C@H](COP(=O)(O)OP(=O)(O)O)[C@@H](O)[C@H]2O)c(=O)[nH]1; assay: purified protein; assay type: biochemical, Oryza sativa; details: 37°C, optimal pH
[12] = substrate: O=c1[nH]cnc2c1ncn2[C@@H]1O[C@H](COP(=O)(O)OP(=O)(O)O)[C@@H](O)[C@H]1O; assay: purified protein; assay type: biochemical, Oryza sativa; details: 37°C, optimal pH
[13] = optimal pH (pH 6.0 with ADP-glucose), no metal required, pH 6.0
[14] = optimal pH (pH 4.0 with ADP), pH 4.0
[15] = optimal pH (pH 5.0 with ADP-glucose), pH 5.0
[16] = optimal pH (pH 4.5 with ADP), pH 4.5

Molecule `Nc1ncnc2c1ncn2[C@@H]1O[C@H](COP(=O)(O)OP(=O)(O)OP(=O)(O)O)[C@@H](O)[C@H]1O` [ATP] has a Km [1] of 2100 µM.

Work on `Nc1nc2c(ncn2[C@@H]2O[C@H](COP(=O)(O)OP(=O)(O)O[C@H]3O[C@H](CO)[C@@H](O)[C@H](O)[C@@H]3O)[C@@H](O)[C@H]2O)c(=O)[nH]1` [GDP-mannose] yielded a Km [1] of 800 µM.

In the case of `Nc1ccn([C@@H]2O[C@H](COP(=O)(O)OP(=O)(O)O[C@H]3O[C@H](CO)[C@@H](O)[C@H](O)[C@H]3O)[C@@H](O)[C@H]2O)c(=O)n1` [CDP-glucose], the Km [1] is reported as 900 µM.

B1: NPP1 (Oryza sativa Japonica Group) (protein)
chain: T1 sequence (Q0X0G2 26-623)
notes: recombinant, purified from transgenic rice cells (UNP1) overexpressing NPP1 cDNA; 70 kDa SDS-PAGE, 251 kDa gel filtration; gene on chromosome 8
Work on B1 yielded a Km [2] of 800 µM, a Vmax [2] of 93 µmol/min/mg and a kcat [2] of 109 s⁻¹. It also gave a kcat/Km [2] of 133000 M⁻¹ s⁻¹, a Km [3, 13] of 800 µM and a Vmax [3, 13] of 183 µmol/min/mg. The kcat [3, 13] was 214 s⁻¹, the kcat/Km [3, 13] was 250000 M⁻¹ s⁻¹ and the Km [4] was 1600 µM. It also gave a Vmax [4] of 121 µmol/min/mg, a kcat [4] of 141 s⁻¹ and a kcat/Km [4] of 85000 M⁻¹ s⁻¹.

B2: NPP6 (Oryza sativa Japonica Group) (protein)
chain: GGGGGVWAFSSSSSSSSYSRIGEQPLSLIGIHRATVGIDAAASVQASPRLLGVKGEDTAWVTVDFAAPHASDGDWIGVFSPSNFNASTCPGPSGSDSGPVICSAPIKYQLANYSSDYGKTGKGTLKFQLINQRQDFSFALFTGGLSNPKLIAVSNKIAFANPKAPVYPRLAQGKSWNEMTVTWTSGYDIKEAYPFVEWGMKWSPPTRTAAGTVTFDRESLCGEPARTVGWRDPGFIHTAFLTDLWPNKEYYYKIGHMLPDGKIVWGKFYSFKAPPFPGQKSLQRVVIFGDMGKAERDGSNEYSNYQPGSLNTTDTLIKDLDNIDIVFHIGDITYANGYISQWDQFTQQVEPITARVPYMIASGNHERDWPNSGSFFNGTDSGGECGVLAETMYYTPTENRANYWYKTDYGMFRFCVADSEHDWREGTEQYAFIESCLATVDRKKQPWLVFIAHRVLGYSSGFFYGAGGAFAEPTARQSLQRLWQRHRVDLAFYGHVHNYERTCPVYDGRCASPERSRYSGAVGGTIHAVVGGGGSHLSNFTAEAPPWSVYREMDYGFVKLTAFNYTSLLYEYRRSSDGEVHDSFTVHREYRDVLACVADSCPPTIPPAT
notes: recombinant, purified from transgenic rice cells (UNP6); 74 kDa SDS-PAGE, 224 kDa gel filtration; gene on chromosome 9
B2 was tested, and the Km [5] was 500 µM, the Vmax [5] was 84 µmol/min/mg and the kcat [5] was 104 s⁻¹. For the same molecule, the kcat/Km [5] was 203000 M⁻¹ s⁻¹, the Km [6, 14] was 300 µM and the Vmax [6, 14] was 68 µmol/min/mg. For the same molecule, the kcat [6, 14] was 83 s⁻¹, the kcat/Km [6, 14] was 297000 M⁻¹ s⁻¹ and the Km [3, 15] was 700 µM. The Vmax [3, 15] was 105 µmol/min/mg, the kcat [3, 15] was 130 s⁻¹ and the kcat/Km [3, 15] was 193000 M⁻¹ s⁻¹. It also gave a Km [7] of 500 µM, a Vmax [7] of 64 µmol/min/mg and a kcat [7] of 79 s⁻¹. It also gave a kcat/Km [7] of 175000 M⁻¹ s⁻¹, a Km [8] of 3000 µM and a Vmax [8] of 250 µmol/min/mg. The kcat [8] was 308 s⁻¹, the kcat/Km [8] was 103000 M⁻¹ s⁻¹ and the Km [9] was 1600 µM. The kcat [9] was 115 s⁻¹ and the kcat/Km [9] was 73000 M⁻¹ s⁻¹.

B3: NPP2 (Oryza sativa Japonica Group) (protein)
chain: RGDEQPLSRIAIERATVAAVDSASVKAQPTVLGLKGQSSDWVVVEFSHPKPSNDDWIGVFSPSGFSSEICQPEYYGDLPPYLCTSPIKFQYANFNNADYNRSGKGLLRLQLINQREDFSFALFSGGLSAPKLIAISNKVSFQNPKAPVYPRLAQGKSWNEMTVTWTSGYSIKEAIPFVEWGHKGGNQMLSPAGTLTFSRNSMCGSPARTVGWRDPGYIHTSFLKELWPDSLYTYRLGHRLLDGTHIWSKSYSFRASPYPGQDSVQRVVIFGDMGKAEIDGSDEYGNYEQASLYTTNQLIKELDSIDMVIHIGDLSYANGYLSQWDQFTQQIEPIASTVPYMIGSGNHERDWPGSGSFYGHNDSGGECGVPTQTMFYVPAENRAKLWYSTDYGMFRFCIADTEQDWRPGTEQYKFIEQCLSSVDRSKQPWLIFLAHRVLGYSSASWYEIMMGSYGEPMGRDGLEELWQKYKVDLAVFGHIHSYERTCPIYQNRCVQDGSNLYTGQFNATTHVIVGGGGAMLSPFRATVPYWSFFRDYDFGFSKLTALNHSTLLFEYKKSRDGKVYDHFTISRDYRDIMACSIDNCPRTTLAV
notes: recombinant, purified from transgenic rice cells (UNP2); 71 kDa SDS-PAGE, 374 kDa gel filtration; gene on chromosome 12
With B3 the Km [5] was 1200 µM, the Vmax [5] was 85 µmol/min/mg and the kcat [5] was 101 s⁻¹. The kcat/Km [5] was 84000 M⁻¹ s⁻¹, the Km [10] was 1900 µM and the Vmax [10] was 76 µmol/min/mg. For the same molecule, the kcat [10] was 89 s⁻¹, the kcat/Km [10] was 47000 M⁻¹ s⁻¹ and the Km [11] was 900 µM. For the same molecule, the Vmax [11] was 24 µmol/min/mg, the kcat [11] was 28 s⁻¹ and the kcat/Km [11] was 32000 M⁻¹ s⁻¹. It also gave a Km [6, 16] of 1100 µM, a kcat [6, 16] of 80 s⁻¹ and a kcat/Km [6, 16] of 73000 M⁻¹ s⁻¹. The Km [8] was 2600 µM, the Vmax [8] was 60 µmol/min/mg and the kcat [8] was 71 s⁻¹. The kcat/Km [8] was 27000 M⁻¹ s⁻¹, the Km [12] was 2200 µM and the Vmax [12] was 75 µmol/min/mg. The kcat [12] was 88 s⁻¹ and the kcat/Km [12] was 40000 M⁻¹ s⁻¹.
